These results are taken from US12070483B2, “Compositions and methods for treatment of acute lung injury” (THE TRUSTEES OF THE UNIVERSITY OF PENNSYLVANIA, priority 2018, dated 2024).

In one experiment the target is T1, Prdx6 (Mus musculus, UniProt O08709).
T1 construct: from tissue; host or cells: mouse lung homogenate (wild type mice)
T1 sequence (O08709 1-224): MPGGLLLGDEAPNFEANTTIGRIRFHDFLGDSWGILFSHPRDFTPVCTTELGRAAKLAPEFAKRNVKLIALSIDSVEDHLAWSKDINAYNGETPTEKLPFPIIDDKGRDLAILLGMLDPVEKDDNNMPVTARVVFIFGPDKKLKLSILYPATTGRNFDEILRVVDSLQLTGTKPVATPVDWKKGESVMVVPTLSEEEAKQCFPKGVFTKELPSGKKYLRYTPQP
Put plainly: aiPLA2 (Prdx6-PLA2) activity of mouse lung homogenate after IT or IV injection of PIP. Type of experiment: in vivo. Details: key to aiPLA2 activity, figure in parentheses (0 h = 100): Prdx6-PLA2 activity as % of 0 h value (0 h = 100). The settings on record: for Prdx6-PLA2 activity of mouse lung homogenate: Table 6; for aiPLA2 activity of mouse lung: 24 hours after IV injection, 2 μg/g, liposomes only 8.81. How it is done: FIG. 6: PIP-2 in liposomes was administered to mice either intratracheally (IT) or intravenously (IV) at 0 time. Lungs were harvested at intervals between 4 and 72 h after the PIP-2 administration, homogenized, and analyzed for Prdx6-PLA2 activity. PIP-2 is effective by either the IT or IV route with a calculated ½ time for recovery of ˜50 h. Results are mean+SE for N=3-4.
PIP-2 in liposomes injected IV or IT inhibits Prdx6 activity of the lung homogenate. Maximal inhibition was seen within 4 hours after administration of PIP-2. Recovery from inhibition began at ˜36 hours and was complete by 48 hours. Results are similar for PIP-1,2,4 (PIP-3 and -5 were not tested). […] Effectiveness requires liposomes for peptide delivery. Inhibition after IT or IV administration was similar.

In another experiment the test system is NOX2. Put plainly: ROS production (Amplex red) of isolated perfused mouse lung stimulated with angiotensin II. In kind it is in vivo. The settings on record: for ROS production by AngII-activated NOX2 in the isolated mouse lung: ex_vivo. The method, then: FIGS. 5A and 5B: PIP-2, incorporated within liposomes, was instilled intratracheally prior to lung isolation. FIG. 5A: Isolated lungs were perfused in a recirculating system with artificial medium. NOX2 activity was stimulated by addition of angiotensin II (Ang II). Amplex red along with horseradish peroxidase were added to the perfusate for detection of ROS production. Aliquots of perfusate were analyzed at intervals by spectrophotometry to determine oxidation of amplex red, indicating ROS production. Results are mean±SE for N=3-4. FIG. 5B: Mice were sacrificed at 6, 12, or 24 h after LPS administration ([…]) and lungs were perfused in situ for 15 min with saline solution containing a fluorophore (difluorofluorescein diacetate, DFFDA). Lungs then were homogenized and fluorescence of the lung homogenate was determined as an index of ROS production. Results for FIG. 5A & FIG. 5B are mean±SE for N=4. *P<0.05 vs corresponding LPS and LPS+PIP-2; § P<0.05 vs 12 h and 24 h LPS; ΔP<0.05 vs corresponding LPS.
FIG. 8: PLA2 inhibitory peptide (PIP-2) inhibits ROS production stimulated by angiotensin II (Ang II) in isolated perfused mouse lung. PIP-2 (2 μg/g body weight) was administered to intact wild type (WT) mice by the IV route. […] After 30 mins, lungs were isolated from anesthesized mice and perfused in a recirculating system with added Ang II ([…]) as a Nox2 activator and Amplex red plus horseradish peroxidase to detect perfusate ROS. WT basal lungs were not stimulated with Ang II. After a 15 min equilibration period (called zero time), aliquots were taken at 15 min intervals for analysis of fluorescence. Each plotted point represents the mean±SE for n=3. The lines were drawn by the least mean squares method. The mean rates of ROS […] calculated from the slope of each line are indicated in parentheses. *P<0.05 vs the other 3 slopes.
FIG. 10: Effect of liposome composition on delivery of PIP-2 to lungs after IV administration. […]
The effect of the PIPs on ROS production in control (untreated) lungs was determined in vitro with isolated perfused lungs. […] The basal rate of ROS production was evaluated with WT lungs that were perfused in the absence of AngII. […] Aliquots of perfusate were taken at 15 min intervals and analyzed by fluorescence for resorufin (λexcitation 568 nm, λemission 581 nm), the product of Amplex red oxidation. The rate of Amplex red oxidation was calculated and expressed as arbitrary fluorescence units (AFU) with normalization to mouse body wt. There was a low rate of Amplex red oxidation in the absence of HRP in the perfusate (˜7% of the AngII-stimulated fluorescence), indicating a non-ROS-mediated oxidation of the fluorophore; this value was subtracted to obtain the reported values.

Take LHDFRHQIL (Inhibitory peptide.) [PIP-2]: the “aiPLA2 activity of mouse lung homogenate” value was 8.84 ± 0.35 nmol/hr/mg protein in the experiment with Prdx6 (IT, 0 h post injection); 1.56 ± 0.03 nmol/hr/mg protein in the experiment with Prdx6 (IT, 4 h post injection); 1.61 ± 0.04 nmol/hr/mg protein in the experiment with Prdx6 (IT, 12 h post injection); 1.63 ± 0.14 nmol/hr/mg protein with Prdx6 (IT, 24 h post injection); 2.04 ± 0.04 nmol/hr/mg protein in the experiment with Prdx6 (IT, 36 h post injection); 2.95 ± 0.10 nmol/hr/mg protein with Prdx6 (IT, 48 h post injection). Also, the “aiPLA2 activity of mouse lung homogenate” value with Prdx6 (IT, 72 h post injection) is reported as 8.78 ± 0.18 nmol/hr/mg protein; with Prdx6 (IV, 0 h post injection) it was 8.85 ± 0.3 nmol/hr/mg protein; in the experiment with Prdx6 (IV, 4 h post injection) it was 1.45 ± 0.07 nmol/hr/mg protein; in the experiment with Prdx6 (IV, 12 h post injection), 1.58 ± 0.04 nmol/hr/mg protein; in the experiment with Prdx6 (IV, 24 h post injection), 1.77 ± 0.11 nmol/hr/mg protein; with Prdx6 (IV, 36 h post injection) it was 2.14 ± 0.03 nmol/hr/mg protein. The “aiPLA2 activity of mouse lung homogenate” value is 3.03 ± 0.05 nmol/hr/mg protein with Prdx6 (IV, 48 h post injection) and 8.49 ± 0.10 nmol/hr/mg protein with Prdx6 (IV, 72 h post injection). The “aiPLA2 activity, figure in parentheses (0 h = 100)” value (“aiPLA2 activity, figure” for short) was 100 with Prdx6 (IT, 0 h post injection); 18 with Prdx6 (IT, 4 h post injection); 18 with Prdx6 (IT, 12 h post injection); 18 in the experiment with Prdx6 (IT, 24 h post injection); 27 in the experiment with Prdx6 (IT, 36 h post injection); 33 with Prdx6 (IT, 48 h post injection). The “aiPLA2 activity, figure” value with Prdx6 (IT, 72 h post injection) turned out to be 99; with Prdx6 (IV, 0 h post injection) it was 100; in the experiment with Prdx6 (IV, 4 h post injection), 16; in the experiment with Prdx6 (IV, 12 h post injection), 18; with Prdx6 (IV, 24 h post injection) it was 20; with Prdx6 (IV, 36 h post injection) it was 24. Moreover, the “aiPLA2 activity, figure” value in the experiment with Prdx6 (IV, 48 h post injection) came to 34; with Prdx6 (IV, 72 h post injection), 96. In the experiment with Prdx6 (PIP-2 in liposomes IV or IT), the “time at which recovery from inhibition began” value is around 36 h. In addition, the “time at which recovery from inhibition was complete” value in the experiment with Prdx6 (PIP-2 in liposomes IV or IT) is at most 48 h. For the same sequence, the “time to maximal inhibition of Prdx6 activity of lung homogenate” value with Prdx6 (PIP-2 in liposomes IV or IT) was at most 4 h. For the same sequence, the “calculated ½ time for recovery of Prdx6-PLA2 activity” value with Prdx6 (PIP-2 in liposomes, IT or IV) was around 50 h. Moreover, the “Prdx6-PLA2 activity of mouse lung homogenate” value is reported as 8.1 ± 0.3 nmol/hr/mg protein with Prdx6 (IT, lungs lavaged prior to assay, 0 post injection); 1.2 ± 0.02 nmol/hr/mg protein with Prdx6 (IT, lungs lavaged, 24 hr post injection); 3.0 ± 0.2 nmol/hr/mg protein in the experiment with Prdx6 (IT, lungs lavaged, 48 hr post injection); 8.3 ± 0.9 nmol/hr/mg protein with Prdx6 (IT, lungs lavaged, 72 hr post injection). For the same sequence, the “inhibition of ROS production” value in the experiment with NOX2 (PIP-2 2 μg/g in liposomes IV, WT lungs, Ang II 50 μM) is recorded as around 75%. Besides, the “ROS production by AngII-activated NOX2 in the isolated mouse lung” value in the experiment with NOX2 was “inhibit ROS production”.

Regarding LYEIKHQIL (Inhibitory peptide.) [PIP-4], the “aiPLA2 activity of mouse lung” value is reported as 8.43 ± 0.23 (n = 3) nmol/hr/mg prot in the experiment with Prdx6 (alone, no liposomes) and 1.55 ± 0.02 (n = 3) nmol/hr/mg prot with Prdx6 (in liposomes). Further, the “Prdx6-PLA2 activity of mouse lung homogenate” value came out at 8.0 ± 0.7 nmol/hr/mg protein in the experiment with Prdx6 (IV, 0 post injection); 1.1 ± 0.02 nmol/hr/mg protein with Prdx6 (IV, 24 hr post injection); 2.8 ± 0.2 nmol/hr/mg protein in the experiment with Prdx6 (IV, 48 hr post injection); 7.8 ± 1.2 nmol/hr/mg protein with Prdx6 (IV, 72 hr post injection); 8.1 ± 0.2 nmol/hr/mg protein in the experiment with Prdx6 (IV, 96 hr post injection). The “ROS production by AngII-activated NOX2 in the isolated mouse lung” value in the experiment on NOX2 is “inhibit ROS production”.
